In the nanobody polyreactivity screen of Harvey et al. (2022):

Test: yeast display, Sf9 membrane polyspecificity reagent, FACS + sequencing; frameworks hold sequencing errors
Method in brief: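 Synthetic nanobody libraries on Saccharomyces cerevisiae BJ5465 were galactose-induced for 36–48 hours, stained 1 hour at 4 °C with 10% biotinylated, detergent-solubilized Sf9 membrane reagent and enriched on streptavidin microbeads. FACS then separated cells into low and high (top ~1%) gates by anti-HA (expression) and streptavidin (reagent binding) fluorescence. Genes were colony-PCR amplified, MiSeq 2 × 250 sequenced and CDR-length filtered. A clone's polyreactivity label is that of its gate of origin.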
For “QVQLVESVGGLVQAGGSLRLSCAASGFTFSPNARGSYRQAPGKERELVAAIDWSGDRTYYADSVKGRFTISRDNAKNTVYLQMNILKPEDTAVYYCKVVRRSPGDYSYYYWGQGTQVTVSS”, the “polyreactivity (PSR sort gate)” value was “low polyreactivity”. For “QVQLVESVGGLVQAGGSLRLSCAASGFTFSTNAMGWYRQAPGKERELVAAISRGGSTNYADSVKGRFTISRDNAKNTVYLQMNSLKPEDTAVYYCNAYLSPDEEEYYWGQGTQVTVSS”, the “polyreactivity (PSR sort gate)” value was “low polyreactivity”. In the case of “QVQLVESVGGLVQAGGSLRLSCAASGGTFGYNAMGWYRQAPGKERELVAAIRVNGGSTYYADSVKGRFTISRDNAKNTVYLQMNSLKPEDTAVYYCAAESRVYRTSYWYGYWGQGTQVTVSS”, the “polyreactivity (PSR sort gate)” value is reported as “high polyreactivity”. For “QVQLVESVGGLVQAGGSLRLSCAASGIIFSYYAMGWYRQPPGKERELVAVISSGGGSTYYADSVKGRFTISRDNAKNTVYLQMNSLKPDDTAVYYCNADRVDRELFTFDYWGQGTQVTVSS”, the “polyreactivity (PSR sort gate)” value was “high polyreactivity”. For “QVQLVESVGGLVQAGGSLRLSCAASGIIFWLSTMGWYRQAPGKERELVAAITSGGSTYYADSVKGRLTISRDNAKNTVYLQMNSLKQEDTALYYCAAVPRYRRWKYDYWGQGTQVTVSS”, the “polyreactivity (PSR sort gate)” value was “high polyreactivity”. With “QVQLVESVGGLVQAGGSLRLSCAASGITFYSYDMGWYRQAPGKERELVAAITYRGGSTYYADSVKGRFTISRDNAKNTVYLQMNSLKPEDTAVYYCNADLLPADAPLWVTGGDYWGQGTQVTVSS” the “polyreactivity (PSR sort gate)” value was “low polyreactivity”. With “QVQLVESVGGLVQAGGSLRLSCAASGLIFAYYAMGWYRQAPGKERELVAAISWTGGSTYYADSVKGRFTISRDNAKNTVYLQMNSLKPEDTAVYYCNTVGKPGFYSWGQGTQVTVSS” the “polyreactivity (PSR sort gate)” value was “high polyreactivity”. For “QVQLVESVGGLVQAGGSLRLSCAASGLTFGGNAMGRYRQAPGKVRELVAAISGSGGRTYYADSVKGRFTISRDNAKNTVYLQMNSLKPEDTAVYYCNAATKRRTSDYWGQGTQVTVSS”, the “polyreactivity (PSR sort gate)” value was “high polyreactivity”. With “QVQLVESVGGLVQAGGSLRLSCAASGLTFGSYAMGWYRQAPGTDRELVAGINQSGGSTYYADSVKGRFTISRDNAKNTVSFQMNSLNPEDTAVYYCNAEAWVSQDWWQWVAYVYWGQGTQVTVSS” the “polyreactivity (PSR sort gate)” value was “high polyreactivity”. For “QVQLVESVGGLVQAGGSLRLSCAASGNIFRGYTMGWYRQAPGKESELVATITWTGVSTFYADSVKGRFTISRDNAKNTVYLQMNSLKPEDTAVYYCAAYYPSHDYSGFWSDTYEYWGQGTQVTVSS”, the “polyreactivity (PSR sort gate)” value was “low polyreactivity”. In the case of “QVQLVESVGGLVQAGGSLRLSCAASGRIFDRYAMGWYRQAPGKERELVAAISSSGGSTYYADSVKGRFTISRDNAKNTVYLQMNSLKPEDTAVYYCAAPRSRSRTSRFDYWGQGTQVTVSS”, the “polyreactivity (PSR sort gate)” value is reported as “high polyreactivity”. For “QVQLVESVGGLVQAGGSLRLSCAASGRIFQYYAMGWYRQAPGKERELVAAITRSGGRTYYADSVKGRFTISRDNAKNTVYLQMNSLKPEDTAVYYCAARDWYYTMYYWGQGTQVTVSS”, the “polyreactivity (PSR sort gate)” value was “high polyreactivity”. In the case of “QVQLVESVGGLVQAGGSLRLSCAASGRIFSYNAMGWYRQAPGKERELVAAITWRGGNTYYADSVKGRFTISRDNAKNTVYLQMNSLKPEDTAVYYCNAVGYSKYYVRTGREFDYWGQGTQVTVSS”, the “polyreactivity (PSR sort gate)” value is reported as “high polyreactivity”. With “QVQLVESVGGLVQAGGSLRLSCAASGRIFYFNGMGWYRQAPGKERELVAAITISTGSTYYADSVKGRFTISRDNAKNTVYLQMNSLKPEDTAVYYCNVEFEYSGWKSFDYWGQGTQVTVSS” the “polyreactivity (PSR sort gate)” value was “low polyreactivity”. For “QVQLVESVGGLVQAGGSLRLSCAASGRTFAQNALGWYRQAPGKERELVAAIRSGGRTNYADSVKGRFTISRDNAKNTVYLQMNSLKPEDTAVYYCAAEWGYWSFYLGRAKVEYWGQGTQVTVSS”, the “polyreactivity (PSR sort gate)” value was “low polyreactivity”. For “QVQLVESVGGLVQAGGSLRLSCAASGRTFAYYAMGWYRQAPGKERELVAAISYRGGTTYYADSVKGRFTISRDNSKNTVYLQMYILKQEDTAVYYCAAKVGVSWYGYWGKGTQVTVSS”, the “polyreactivity (PSR sort gate)” value was “high polyreactivity”. With “QVQLVESVGGLVQAGGSLRLSCAASGRTFGRYAMGWYRQAPGKERELVAGISRSGDSTHYADSVKGRFTISRDNAKNTVSLQMNSLKPEDTAVYYCNKETPTIGARKYEYWGQGTQVTVSS” the “polyreactivity (PSR sort gate)” value was “low polyreactivity”. In the case of “QVQLVESVGGLVQAGGSLRLSCAASGRTFHGNAMRWYRQARGKERELVAAISYSGGRTYYADSVKGRFTISRDNAKNTVYLQMNSLKPEDTAVYYCAAWGSSYSFDYWGQGTQVTVSS”, the “polyreactivity (PSR sort gate)” value is reported as “high polyreactivity”. With “QVQLVESVGGLVQAGGSLRLSCAASGRTFNYYARGWYRQAPGKERELVAAISWSGTPTYYADSVKGRFTISRDNAKNTVYLQMNSLKPEDTAVYYCAAYLVSYPRGNYIRYDYWGQGTQVTVSS” the “polyreactivity (PSR sort gate)” value was “low polyreactivity”. For “QVQLVESVGGLVQAGGSLRLSCAASGRTFRKYAMGWYRQAQGKERELVASITYSGGSTYYADSVKGRFTISRDNAKNTVYLQMNSLKPEDTAVYYCAARLHWIRYPQTLYDYWGQGTQVTVSS”, the “polyreactivity (PSR sort gate)” value was “high polyreactivity”. With “QVQLVESVGGLVQAGGSLRLSCAASGRTFSKYAMGWYRQEPGQERELVAAITSRGSSTYYADSVKGRFTISRDNANNTVYLQMNSLKPEETAVYYCNAGGYSKRTGRYRSGSDYWGQGTHVTVSS” the “polyreactivity (PSR sort gate)” value was “high polyreactivity”. In the case of “QVQLVESVGGLVQAGGSLRLSCAASGRTFYFYAMGWYRQAPGKERELVAAITSGDTTHYADSVKGRFTISRDNAKNTVYLQMNSLKPDDTAVYYCAADKFKKISGYQRRSNYWGQGTQVTVSS”, the “polyreactivity (PSR sort gate)” value is reported as “low polyreactivity”. In the case of “QVQLVESVGGLVQAGGSLRLSCAASGRTFYHYAMGWYRQAPGKERELVAAITWSGGSTYYADSVKGRFTISRDNAKNTVYLQMNSLKPEDTAVYYCAAAYRPWRGGYYPVGYYYWGQGTQVTVSS”, the “polyreactivity (PSR sort gate)” value is reported as “high polyreactivity”. In the case of “QVQLVESVGGLVQAGGSLRLSCAASGRTFYRYAMGWYRPAPGKERELVAAITASGGSTYYADSVKGRFTISRDNAQNTVYLQMKSLKPEDTAVYYCAKGGKSRYSTWHGDYWGQGTQVTVSS”, the “polyreactivity (PSR sort gate)” value is reported as “high polyreactivity”. In the case of “QVQLVESVGGLVQAGGSLRLSCAASGRTIVTNAIGWYRQAPGKERELVAAISRRTGSTYYADSVKGRFTISRDNAKNTVYLQMNSLKPEDTAVYYCAAKGYGSAPTYRHNYWGQGTQVTVSS”, the “polyreactivity (PSR sort gate)” value is reported as “high polyreactivity”. For “QVQLVESVGGLVQAGGSLRLSCAASGRTLFTNGMGWYRQAPGKESELVAAISTSGGSTHYADSVKGRFTISRDNAKNTVYLQMNSLKPEDTAVYYCAVDVLTVGQSYDHWGQGTQVTVSS”, the “polyreactivity (PSR sort gate)” value was “high polyreactivity”. For “QVQLVESVGGLVQAGGSLRLSCAASGSIFDSNAMGWYRQAPGKVRELVASITSSGGSTYYADSVKGRFTISRDNAKKTVYLQMNSLKPEDTAVYYCAAKQAQRRYRQWSTSGYWGQGTQVTVSS”, the “polyreactivity (PSR sort gate)” value was “high polyreactivity”. With “QVQLVESVGGLVQAGGSLRLSCAASGSIFDWNAMGWYREAPGKERELVASIDWDGGRTYYADSVKGRFTISRDNAKNTVYLQMNSLKPEDTAVYYCAATYYYDWWRGRWSPHIMDYWGQGTQVTVSS” the “polyreactivity (PSR sort gate)” value was “low polyreactivity”. In the case of “QVQLVESVGGLVQAGGSLRLSCAASGSIFEWSAMGWYRQAPGKERELVADISSVGSTYYADSVKGRFTISRDNAKNTVYLQMNSLKPEDTAVYYCAADGTWVRSPHFYYWGQGTQVTVSS”, the “polyreactivity (PSR sort gate)” value is reported as “low polyreactivity”. For “QVQLVESVGGLVQAGGSLRLSCAASGSIFGRYVMGWYRQAPGKERELVAAITSGGTTNYADSVKGRFTISRDNAKHTVYLQMNSLKPEDTAVYSCNADYYSRIVGVRIYDYWGQGTQVTVSS”, the “polyreactivity (PSR sort gate)” value was “low polyreactivity”.
